According to US6749856B1, “Mucosal cytotoxic T lymphocyte responses” (priority 1997, dated 2004):

Test system: P18IIIB-I10 peptide-pulsed 51Cr labeled P815 targets
Test: CTL 51Cr release assay with PP, LP or SP effector cells of immunized mice
Format: in vivo, BALB/c mice
Conditions: day 35

B1: rmIL-12 (protein, UniProt P43431 23-215; P43432 23-335, looked up)
Interleukin-12 subunit alpha: RVIPVSGPARCLSQSRNLLKTTDDMVKTAREKLKHYSCTAEDIDHEDITRDQTSTLKTCLPLELHKNESCLATRETSSTTRGSCLPPQKTSLMMTLCLGSIYEDLKMYQTEFQAINAALQNHNHQQIILDKGMLVAIDELMQSLNHNGETLRQKPPVGEADPYRVKMKLCILLHAFSTRVVTINRVMGYLSSA
Interleukin-12 subunit beta: MWELEKDVYVVEVDWTPDAPGETVNLTCDTPEEDDITWTSDQRHGVIGSGKTLTITVKEFLDAGQYTCHKGGETLSHSHLLLHKKENGIWSTEILKNFKNKTFLKCEAPNYSGRFTCSWLVQRNMDLKFNIKSSSSSPDSRAVTCGMASLSAEKVTLDQRDYEKYSVSCQEDVTCPTAEETLPIELALEARQQNKYENYSTSFFIRDIIKPDPPKNLQMKPLKNSQVEVSWEYPDSWSTPHSYFSLKFFVRIQRKKEKMKETEEGCNQKGAFLVEKTSTEVQCKGGNVCVQAQDRYYNSSCSKWACVPCRVRS
In the case of B1, the “change in HIV-specific CTL activity in mucosal or systemic sites, rmIL-12 by IP route” value (1 μg IP each day of IR immunization with PCLUS3-18IIIB 50 μg) is reported as “did not lead to significant changes”, the “change in CTL level in mucosal and systemic sites, rmIL-12 + DOTAP intrarectally with peptide” value (1 μg IR) is reported as “significant increase in the CTL level” and the “induction of mucosal or systemic CTL in IR-immunized IFNγ−/− mice treated mucosally with rmIL-12” value (rmIL-12 1 μg/mouse + DOTAP IR with peptide) is reported as “did not lead to the induction of mucosal or systemic CTL”.
